Residue numbers refer to the chain shown, from its start. Numbers in names are those of the source.
Tests used:
Test in all cases: native gel or EMSA
[1] = biological target: T1, P. horikoshii aEF1α R132L mutant (Pyrococcus horikoshii, UniProt O59153 1-428, R132L)
T1 sequence: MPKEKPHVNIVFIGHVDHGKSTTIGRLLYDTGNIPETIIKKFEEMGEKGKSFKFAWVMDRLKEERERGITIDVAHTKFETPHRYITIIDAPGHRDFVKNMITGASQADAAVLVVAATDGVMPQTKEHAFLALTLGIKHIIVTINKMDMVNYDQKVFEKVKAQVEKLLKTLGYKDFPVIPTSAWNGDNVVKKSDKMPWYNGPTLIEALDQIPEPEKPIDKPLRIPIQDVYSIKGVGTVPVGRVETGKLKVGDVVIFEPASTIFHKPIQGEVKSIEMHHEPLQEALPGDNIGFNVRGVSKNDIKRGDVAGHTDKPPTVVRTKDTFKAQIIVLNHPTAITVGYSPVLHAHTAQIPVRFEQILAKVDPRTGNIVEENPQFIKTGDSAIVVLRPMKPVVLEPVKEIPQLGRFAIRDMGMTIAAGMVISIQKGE

[2] = biological target: T2, P. horikoshii aEF1α L359S mutant (Pyrococcus horikoshii, UniProt O59153 1-428, L359S)
T2 sequence: T1 sequence with L132R, L359S

[3] = biological target: T3, P. horikoshii aEF1α K125L mutant (Pyrococcus horikoshii, UniProt O59153 1-428, K125L)
T3 sequence: T1 sequence with K125L, L132R

[4] = biological target: T4, P. horikoshii aEF1α L166S mutant (Pyrococcus horikoshii, UniProt O59153 1-428, L166S)
T4 sequence: T1 sequence with L132R, L166S

[5] = biological target: T5, P. horikoshii aEF1α S423L mutant (Pyrococcus horikoshii, UniProt O59153 1-428, S423L)
T5 sequence: T1 sequence with L132R, S423L

[6] = biological target: T6, P. horikoshii aEF1α A360S mutant (Pyrococcus horikoshii, UniProt O59153 1-428, A360S)
T6 sequence: T1 sequence with L132R, A360S

[7] = biological target: T7, Pyrococcus horikoshii elongation factor aEF1α, wild type (Pyrococcus horikoshii, UniProt O59153 1-428)
T7 sequence: T1 sequence with L132R

Measured: binding result

B1: Pyrococcus horikoshii ribosomal stalk protein aP1, wild type (natural protein, UniProt O57705 1-108, looked up)
chain: MEYVYAALLLHSVGKEINEENLKAVLQAAGVEPEEARIKALVAALEGVNIDEVIEKAAMPVAVAAAPAAAPAEAGGEEKKEEEKKEEEEKEEEVSEEEALAGLSALFG
not listed: [7]
binds: all other assays above

B2: P. horikoshii aP1 L100S mutant (natural protein, Pyrococcus horikoshii, UniProt O57705 1-108, looked up)
chain: B1 chain with L100S
binds: [7]

Reference: publication PMC4267659 (Nucleic Acids Research, 2014)
